{
  "source": "paper PMC7393505",
  "target": "4×SUMO2 linear fusion (C47A) with a single C-terminal cysteine labelled with Alexa488",
  "assay": "fluorescence polarisation; unlabelled RNF4 titrated against 1 µM 4×SUMO-Alexa488; 50 mM Tris, 150 mM NaCl, 0.5 mM TCEP, pH 7.5; room temperature, 10 min before measuring FP",
  "data": [
    {"substance": "RNF4 ∆Basic, full-length (basic charge removed from the arginine-rich motif) (from UniProt O88846 1-194) (enzyme)", "values": [
      {"measurement": "Kd", "value": 2600, "unit": "nM"}
    ]}
  ]
}
